The experiment has as its target leptin receptor (LepRb), expressed on transfected HEK293 cells. Nature of the experiment: cell-based or functional assay.

Drawing on US20210162011A1, this text covers cells with a p-STAT3 positive nucleus, immunofluorescence and cells with a p-STAT3 positive nucleus after leptin, immunofluorescence for three substances.

leptin (ligand) returned a cells with a p-STAT3 positive nucleus, immunofluorescence above 80%.
“recombinant human Batotin protein with a six-amino-acid His tag at its C-terminus (from UniProt Q96GX8 1-76) (ligand)” returned a cells with a p-STAT3 positive nucleus after leptin, immunofluorescence below 10%.
In the case of “recombinant mouse Batotin protein (76 aa) with a six-amino-acid His tag at its C-terminus (from UniProt Q8K1L6 1-76) (ligand)”, the cells with a p-STAT3 positive nucleus after leptin, immunofluorescence is below 10%.
